Laboratory results published in IntAct's records for PubMed 19625296.

Assays:
dvl2_human DVL2 = dvl2_human DVL2 (UniProt O14641)
dvl3_human DVL3 = dvl3_human DVL3 (UniProt Q92997)
Chain of UniProt Q92997 (Q92997 whole entry): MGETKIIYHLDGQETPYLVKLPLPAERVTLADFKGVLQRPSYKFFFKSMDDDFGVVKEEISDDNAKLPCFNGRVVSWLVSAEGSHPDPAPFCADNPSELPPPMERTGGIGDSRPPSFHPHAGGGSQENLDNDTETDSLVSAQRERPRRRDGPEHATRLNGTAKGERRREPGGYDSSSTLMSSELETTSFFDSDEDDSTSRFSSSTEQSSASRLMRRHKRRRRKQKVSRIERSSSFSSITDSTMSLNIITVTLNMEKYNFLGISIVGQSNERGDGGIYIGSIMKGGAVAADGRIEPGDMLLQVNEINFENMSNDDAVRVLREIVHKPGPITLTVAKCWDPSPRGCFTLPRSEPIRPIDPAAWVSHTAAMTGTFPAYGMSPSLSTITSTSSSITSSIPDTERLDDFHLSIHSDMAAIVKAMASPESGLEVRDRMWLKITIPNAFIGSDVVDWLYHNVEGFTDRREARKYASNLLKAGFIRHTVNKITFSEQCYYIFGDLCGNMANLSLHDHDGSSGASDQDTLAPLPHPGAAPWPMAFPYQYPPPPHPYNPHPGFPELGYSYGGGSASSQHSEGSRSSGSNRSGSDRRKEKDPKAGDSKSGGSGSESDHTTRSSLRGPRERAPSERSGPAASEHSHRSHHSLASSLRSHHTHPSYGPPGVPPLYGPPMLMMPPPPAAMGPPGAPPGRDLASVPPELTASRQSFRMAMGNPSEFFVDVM

Chain of DVL1, O14640-2 (O14640 other isoform, or with tags, fused parts or gaps): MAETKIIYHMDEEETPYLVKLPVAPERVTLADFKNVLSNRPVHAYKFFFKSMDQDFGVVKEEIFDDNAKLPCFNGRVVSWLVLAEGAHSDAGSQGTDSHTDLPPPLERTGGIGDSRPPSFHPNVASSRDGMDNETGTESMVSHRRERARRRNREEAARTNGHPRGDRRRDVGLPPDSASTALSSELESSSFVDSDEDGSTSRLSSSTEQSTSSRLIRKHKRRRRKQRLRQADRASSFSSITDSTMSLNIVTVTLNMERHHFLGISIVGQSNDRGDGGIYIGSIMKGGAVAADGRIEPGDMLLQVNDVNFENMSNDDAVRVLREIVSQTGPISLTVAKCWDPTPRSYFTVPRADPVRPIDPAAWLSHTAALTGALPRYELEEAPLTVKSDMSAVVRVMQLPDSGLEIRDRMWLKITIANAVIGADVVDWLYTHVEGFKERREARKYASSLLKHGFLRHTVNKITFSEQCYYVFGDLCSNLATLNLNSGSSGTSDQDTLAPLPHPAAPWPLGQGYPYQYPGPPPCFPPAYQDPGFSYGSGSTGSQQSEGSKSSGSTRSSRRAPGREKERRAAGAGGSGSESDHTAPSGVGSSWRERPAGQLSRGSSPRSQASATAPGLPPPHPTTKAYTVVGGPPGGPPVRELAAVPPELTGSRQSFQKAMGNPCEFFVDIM
Chain of UniProt O14641 (O14641 whole entry): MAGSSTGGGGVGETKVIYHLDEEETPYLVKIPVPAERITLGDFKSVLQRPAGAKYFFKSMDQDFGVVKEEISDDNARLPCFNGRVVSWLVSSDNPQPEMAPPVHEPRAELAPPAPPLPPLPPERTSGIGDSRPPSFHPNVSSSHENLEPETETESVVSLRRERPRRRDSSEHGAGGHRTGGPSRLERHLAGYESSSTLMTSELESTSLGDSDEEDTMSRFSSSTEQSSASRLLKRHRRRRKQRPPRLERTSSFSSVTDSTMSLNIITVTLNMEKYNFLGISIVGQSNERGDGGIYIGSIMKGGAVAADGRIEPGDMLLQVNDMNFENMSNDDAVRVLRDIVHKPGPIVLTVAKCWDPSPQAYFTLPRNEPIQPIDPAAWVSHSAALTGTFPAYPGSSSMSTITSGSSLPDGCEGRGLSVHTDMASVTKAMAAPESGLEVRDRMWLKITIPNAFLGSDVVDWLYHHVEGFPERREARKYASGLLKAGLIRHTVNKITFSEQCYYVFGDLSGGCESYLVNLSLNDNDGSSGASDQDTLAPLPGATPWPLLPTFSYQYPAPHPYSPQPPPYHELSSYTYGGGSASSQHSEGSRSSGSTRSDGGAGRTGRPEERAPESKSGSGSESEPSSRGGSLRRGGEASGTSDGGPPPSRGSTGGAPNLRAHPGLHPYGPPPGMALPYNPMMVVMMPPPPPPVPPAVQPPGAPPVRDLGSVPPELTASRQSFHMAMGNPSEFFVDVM

Substance	effect of a mutation on the interaction (DVL1, O14640-2)	effect of a mutation on the interaction (dvl2_human DVL2)	effect of a mutation on the interaction (dvl3_human DVL3)
Leucine-rich repeat serine/threonine-protein kinase 2 (Homo sapiens), Q5S007 R1441G	increasing interaction	–	–
Leucine-rich repeat serine/threonine-protein kinase 2 (Homo sapiens), Q5S007 R1441H	increasing interaction	–	–
Leucine-rich repeat serine/threonine-protein kinase 2 (Homo sapiens), Q5S007 R1728H	increasing interaction	–	–
Leucine-rich repeat serine/threonine-protein kinase 2 (Homo sapiens), Q5S007 R1728L	increasing interaction	–	–
Leucine-rich repeat serine/threonine-protein kinase 2 (Homo sapiens), Q5S007 Y1699C	decreasing interaction	decreasing interaction	decreasing interaction

Now from value to substance:

effect of a mutation on the interaction (DVL1, O14640-2)	effect of a mutation on the interaction (dvl2_human DVL2)	effect of a mutation on the interaction (dvl3_human DVL3)	Substance
increasing interaction	–	–	Leucine-rich repeat serine/threonine-protein kinase 2 (Homo sapiens), Q5S007 R1441C
–	decreasing interaction	–	Leucine-rich repeat serine/threonine-protein kinase 2 (Homo sapiens), Q5S007 R1514Q
